Data from patent US11951128B2, “Compositions and methods for the isolation and/or generation of specific CD4+ and CD8+ T-cell subsets” (LA JOLLA INSTITUTE FOR ALLERGY AND IMMUNOLOGY, priority 2017, dated 2024).

B1: IL-10: anti-inflammatory cytokine (protein, UniProt P22301 19-178, looked up)
Interleukin-10: SPGQGTQSENSCTHFPGNLPNMLRDLRDAFSRVKTFFQMKDQLDNLLLKESLLEDFKGYLGCQALSEMIQFYLEEVMPQAENQDPDIKAHVNSLGENLKTLRLRLRRCHRFLPCENKSKAVEQVKNAFNKLQEKGIYKAMSEFDIFINYIEAYMTMKIRN
B2: IL-12: pro-inflammatory cytokine (protein, UniProt P29459 23-219; P29460 23-328, looked up)
Interleukin-12 subunit alpha: RNLPVATPDPGMFPCLHHSQNLLRAVSNMLQKARQTLEFYPCTSEEIDHEDITKDKTSTVEACLPLELTKNESCLNSRETSFITNGSCLASRKTSFMMALCLSSIYEDLKMYQVEFKTMNAKLLMDPKRQIFLDQNMLAVIDELMQALNFNSETVPQKSSLEEPDFYKTKIKLCILLHAFRIRAVTIDRVMSYLNAS
Interleukin-12 subunit beta: IWELKKDVYVVELDWYPDAPGEMVVLTCDTPEEDGITWTLDQSSEVLGSGKTLTIQVKEFGDAGQYTCHKGGEVLSHSLLLLHKKEDGIWSTDILKDQKEPKNKTFLRCEAKNYSGRFTCWWLTTISTDLTFSVKSSRGSSDPQGVTCGAATLSAERVRGDNKEYEYSVECQEDSACPAAEESLPIEVMVDAVHKLKYENYTSSFFIRDIIKPDPPKNLQLKPLKNSRQVEVSWEYPDTWSTPHSYFSLTFCVQVQGKSKREKKDRVFTDKTSATVICRKNASISVRAQDRYYSSSWSEWASVPCS

Key:
[1] = tested on: B16 tumor cells; assay: MHC class II expression on B16 tumor cells; format: cell-based, mouse
Text: As a result, most transferred CD4 CTL died in vivo. In addition, activated anti-tumor specific CD8 CTL kill the tumor cells in response to detecting their Ag on the tumor cells presented by MHC class I (OVA Ag on the B16-OVA). In addition they also secrete IFNg which in turn upregulate MHC class II expression on the tumor cells (right panel). Anti-tumor reactive CD8 T-cells become restrained (induction of PD-1) or undergo TL- or activation-induced cell death. Therefore, a combination of anti-tumor CD8 T-cells (or NK T-cells or DN T-cells) and anti-tumor CD4 CTL which can kill tumor cells once MHC class II is induced, can be a powerful anti-tumor immunotherapy.

[2] = tested on: CD8ab T-cells; assay: induction of CD8αα on in vitro activated CD8ab T-cells, measured with TL tetramer; format: cell-based, mice; conditions: for generation of CD8αα effector memory precursor cells: WT, IL10−/− or IL21−/− CD8ab T-cells, anti-CD3/CD28, with or without IL12
Protocol: CD8ab T-cells isolated from wild type mice (WT) or IL10 deficient mice (IL10−/−), or IL21 deficient mice (IL21−/−) were activated in vitro with anti-CD3/CD28 and with or without IL12. Induction of CD8αα was measured using TL tetramer.

Molecule	MHC class II (I-A^b) expression on tumor cells [1]	generation of CD8αβ TEM/RM [2]	generation of CD8αα effector memory precursor cells [2]
IFNg: soluble cytokine, the only member of the type II class of interferons	induce MHC class II (I-A^b)	–	–
IL-21: anti-inflammatory cytokine	–	counteract	inhibit
B1	–	counteract	inhibit
B2	–	promotes	promotes
